From patent US20140087995A1 (published 2014)
Numbered stars: 1 amine (or outer) side, 2 acyl side, 3 side chain; on linkers, the order of the positions; unused ones are H or OH. Bridge positions count the residues as written; N and C are the ends. * marks the point of attachment. C20 diacid = O=C(O)CCCCCCCCCCCCCCCCCCC(=O)*; γGlu = O=C(O)[C@H](CCC(=O)[*:2])N[*:1]; AEEA = NCCOCCOCC(=O)O

T1: human amylin receptor (human, UniProt P30988 25-474; O60896 24-148, limits assumed)
T1 construct: whole, on cells; Calcitonin receptor plus RAMP-3 gives the amylin 3(a) receptor; membranes of Amylin 3(a)/CRE-luc cells were used; also called hAmylin-R; hAmylinR
T1 sequence (looked up) 1: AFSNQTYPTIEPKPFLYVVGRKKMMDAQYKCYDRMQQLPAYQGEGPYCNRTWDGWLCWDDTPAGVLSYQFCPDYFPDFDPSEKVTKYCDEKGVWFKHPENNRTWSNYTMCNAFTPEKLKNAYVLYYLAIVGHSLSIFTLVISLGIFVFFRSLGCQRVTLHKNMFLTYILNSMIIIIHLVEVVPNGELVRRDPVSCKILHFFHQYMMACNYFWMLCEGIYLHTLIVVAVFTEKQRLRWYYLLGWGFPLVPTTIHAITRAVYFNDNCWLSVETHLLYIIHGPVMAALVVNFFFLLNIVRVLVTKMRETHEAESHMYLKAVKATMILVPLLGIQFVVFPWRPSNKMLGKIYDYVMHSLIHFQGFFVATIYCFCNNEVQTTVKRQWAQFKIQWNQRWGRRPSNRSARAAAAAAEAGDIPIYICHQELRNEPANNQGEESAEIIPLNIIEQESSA
T1 sequence (looked up) 2: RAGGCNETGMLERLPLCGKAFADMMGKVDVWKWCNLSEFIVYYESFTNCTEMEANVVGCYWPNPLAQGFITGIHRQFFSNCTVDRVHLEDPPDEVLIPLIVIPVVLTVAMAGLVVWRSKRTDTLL


Biological target: T1, human amylin receptor
Assay: SPA competition binding, displacement of 125I-rat amylin from membranes with human amylin 3(a) receptor (Assay V)
Method: The binding assay was performed using scintillation proximity assay (SPA) beads (RPNQ0001) from PerkinElmer and cell membranes from the Amylin 3(a)/CRE-luc cells (as described in Assay (II)) were used. Membranes were prepared in the following way; the cells were rinsed with PBS and incubated with Versene for approximately 5 min before harvesting. The cells were flushed with PBS and the cell-suspension was centrifuged for 5 min at 1000 rpm. Cells were homogenized (ultrathurrax) in a buffer containing 20 mM Na-HEPES and 10 mM EDTA (pH 7.4) and centrifuged at 20.000 rpm for 15 min. The resulting pellet was resuspended, homogenized and centrifuged (20.000 rpm, 15 min) in a buffer containing 20 mM Na-HEPES and 0.1 mM EDTA (pH 7.4, buffer 2). The resulting pellet was resuspended in buffer 2 and protein concentration was measured (BCA protein Assay, Pierce). The homogenate was kept cold during the whole procedure. The membranes were kept at −80° C. until use. The assay was performed in a 384 well Optiplate (PerkinElmer) in a total volume of 40 ul. Membranes were mixed with SPA beads. Final concentration of membranes 35 ng/μL final and SPA beads was 0.05 mg/well. Test-compounds were dissolved in DMSO and further diluted in assay buffer (50 mM Hepes, pH 7.4, 1 mM CaCl2, 5 mM MgCl₂, 0.1% OA and 0.02% Tween20). […] The final mixture was incubated with shaking at 400 rpm for 120 min at 25° C. prior to centrifugation (1500 rpm, 10 min). Samples were analyzed on TopCounter™ (Packard). The IC₅₀ was calculated using (one site binding competition analysis) GraphPad Prism5 as a measure of receptor affinity.

Binder	IC50 [nM]
{C20 diacid-γGlu-γGlu}-KCNTATCATQRLAEFLRHSSPNFGAIPSSTNVGSNTY-NH2 (disulfide 2-7; SMILES CC[C@H](C)[C@H](NC(=O)[C@H](C)NC(=O)CNC(=O)[C@H](Cc1ccccc1)NC(=O)[C@H](CC(N)=O)NC(=O)[C@@H]1CCCN1C(=O)[C@H](CO)NC(=O)[C@H](CO)NC(=O)[C@H](Cc1c[nH]cn1)NC(=O)[C@H](CCCNC(=N)N)NC(=O)[C@H](CC(C)C)NC(=O)[C@H](Cc1ccccc1)NC(=O)[C@H](CCC(=O)O)NC(=O)[C@H](C)NC(=O)[C@H](CC(C)C)NC(=O)[C@H](CCCNC(=N)N)NC(=O)[C@H](CCC(N)=O)NC(=O)[C@@H](NC(=O)[C@H](C)NC(=O)[C@@H]1CSSC[C@H](NC(=O)[C@H](CCCCN)NC(=O)CC[C@H](NC(=O)CC[C@H](NC(=O)CCCCCCCCCCCCCCCCCCC(=O)O)C(=O)O)C(=O)O)C(=O)N[C@@H](CC(N)=O)C(=O)N[C@@H]([C@@H](C)O)C(=O)N[C@@H](C)C(=O)N[C@@H]([C@@H](C)O)C(=O)N1)[C@@H](C)O)C(=O)N1CCC[C@H]1C(=O)N[C@@H](CO)C(=O)N[C@@H](CO)C(=O)N[C@H](C(=O)N[C@@H](CC(N)=O)C(=O)N[C@H](C(=O)NCC(=O)N[C@@H](CO)C(=O)N[C@@H](CC(N)=O)C(=O)N[C@H](C(=O)N[C@@H](Cc1ccc(O)cc1)C(N)=O)[C@@H](C)O)C(C)C)[C@@H](C)O, also called 14E, 17R, 21P, 27P)	0.597
{C20 diacid-γGlu}-KCNTATCATQRLANFLRHSSPNFGAIPSSTNVGPETY-NH2 (disulfide 2-7; SMILES CC[C@H](C)[C@H](NC(=O)[C@H](C)NC(=O)CNC(=O)[C@H](Cc1ccccc1)NC(=O)[C@H](CC(N)=O)NC(=O)[C@@H]1CCCN1C(=O)[C@H](CO)NC(=O)[C@H](CO)NC(=O)[C@H](Cc1c[nH]cn1)NC(=O)[C@H](CCCNC(=N)N)NC(=O)[C@H](CC(C)C)NC(=O)[C@H](Cc1ccccc1)NC(=O)[C@H](CC(N)=O)NC(=O)[C@H](C)NC(=O)[C@H](CC(C)C)NC(=O)[C@H](CCCNC(=N)N)NC(=O)[C@H](CCC(N)=O)NC(=O)[C@@H](NC(=O)[C@H](C)NC(=O)[C@@H]1CSSC[C@H](NC(=O)[C@H](CCCCN)NC(=O)CC[C@H](NC(=O)CCCCCCCCCCCCCCCCCCC(=O)O)C(=O)O)C(=O)N[C@@H](CC(N)=O)C(=O)N[C@@H]([C@@H](C)O)C(=O)N[C@@H](C)C(=O)N[C@@H]([C@@H](C)O)C(=O)N1)[C@@H](C)O)C(=O)N1CCC[C@H]1C(=O)N[C@@H](CO)C(=O)N[C@@H](CO)C(=O)N[C@H](C(=O)N[C@@H](CC(N)=O)C(=O)N[C@H](C(=O)NCC(=O)N1CCC[C@H]1C(=O)N[C@@H](CCC(=O)O)C(=O)N[C@H](C(=O)N[C@@H](Cc1ccc(O)cc1)C(N)=O)[C@@H](C)O)C(C)C)[C@@H](C)O, also called 17R, 21P, 27P, 34P, 35E)	0.577
{C20 diacid-γGlu-AEEA-AEEA}-KCNTATCATQRLAEFLRHSSPNFGAIPSSTNVGSNTP-NH2 (disulfide 2-7; SMILES CC[C@H](C)[C@H](NC(=O)[C@H](C)NC(=O)CNC(=O)[C@H](Cc1ccccc1)NC(=O)[C@H](CC(N)=O)NC(=O)[C@@H]1CCCN1C(=O)[C@H](CO)NC(=O)[C@H](CO)NC(=O)[C@H](Cc1c[nH]cn1)NC(=O)[C@H](CCCNC(=N)N)NC(=O)[C@H](CC(C)C)NC(=O)[C@H](Cc1ccccc1)NC(=O)[C@H](CCC(=O)O)NC(=O)[C@H](C)NC(=O)[C@H](CC(C)C)NC(=O)[C@H](CCCNC(=N)N)NC(=O)[C@H](CCC(N)=O)NC(=O)[C@@H](NC(=O)[C@H](C)NC(=O)[C@@H]1CSSC[C@H](NC(=O)[C@H](CCCCN)NC(=O)COCCOCCNC(=O)COCCOCCNC(=O)CC[C@H](NC(=O)CCCCCCCCCCCCCCCCCCC(=O)O)C(=O)O)C(=O)N[C@@H](CC(N)=O)C(=O)N[C@@H]([C@@H](C)O)C(=O)N[C@@H](C)C(=O)N[C@@H]([C@@H](C)O)C(=O)N1)[C@@H](C)O)C(=O)N1CCC[C@H]1C(=O)N[C@@H](CO)C(=O)N[C@@H](CO)C(=O)N[C@H](C(=O)N[C@@H](CC(N)=O)C(=O)N[C@H](C(=O)NCC(=O)N[C@@H](CO)C(=O)N[C@@H](CC(N)=O)C(=O)N[C@H](C(=O)N1CCC[C@H]1C(N)=O)[C@@H](C)O)C(C)C)[C@@H](C)O, also called 14E, 17R, 21P, 27P, 37P)	0.217
{C20 diacid-γGlu}-KCNTATCATQRLADFLRHSSPNFGAIPSSTNVGSNTP-NH2 (disulfide 2-7; SMILES CC[C@H](C)[C@H](NC(=O)[C@H](C)NC(=O)CNC(=O)[C@H](Cc1ccccc1)NC(=O)[C@H](CC(N)=O)NC(=O)[C@@H]1CCCN1C(=O)[C@H](CO)NC(=O)[C@H](CO)NC(=O)[C@H](Cc1c[nH]cn1)NC(=O)[C@H](CCCNC(=N)N)NC(=O)[C@H](CC(C)C)NC(=O)[C@H](Cc1ccccc1)NC(=O)[C@H](CC(=O)O)NC(=O)[C@H](C)NC(=O)[C@H](CC(C)C)NC(=O)[C@H](CCCNC(=N)N)NC(=O)[C@H](CCC(N)=O)NC(=O)[C@@H](NC(=O)[C@H](C)NC(=O)[C@@H]1CSSC[C@H](NC(=O)[C@H](CCCCN)NC(=O)CC[C@H](NC(=O)CCCCCCCCCCCCCCCCCCC(=O)O)C(=O)O)C(=O)N[C@@H](CC(N)=O)C(=O)N[C@@H]([C@@H](C)O)C(=O)N[C@@H](C)C(=O)N[C@@H]([C@@H](C)O)C(=O)N1)[C@@H](C)O)C(=O)N1CCC[C@H]1C(=O)N[C@@H](CO)C(=O)N[C@@H](CO)C(=O)N[C@H](C(=O)N[C@@H](CC(N)=O)C(=O)N[C@H](C(=O)NCC(=O)N[C@@H](CO)C(=O)N[C@@H](CC(N)=O)C(=O)N[C@H](C(=O)N1CCC[C@H]1C(N)=O)[C@@H](C)O)C(C)C)[C@@H](C)O, also called 14D, 17R, 21P, 27P, 37P)	0.082
KCNTATCATQRLANFLRHSSPNFGAIPSSTNVGHNTY (C20 diacid-gGlu on the alpha amino group of the N-terminal residue; disulfide Cys2-Cys7 and C-terminal amide as in human amylin, also called 17R, 21P, 27P, 34H) [N^α1-[(4S)-4-carboxy-4-(19-carboxynonadecanoylamino)butanoyl]-[Arg17,Pro21,Pro27,His34]-h-amylin]	0.549
KCNTATCATQRLANFLRHSSPNFGAIPSSTNVGRNTY (C20 diacid-gGlu on the alpha amino group of the N-terminal residue; disulfide Cys2-Cys7 and C-terminal amide as in human amylin, also called 17R, 21P, 27P, 34R) [N^α1-[(4S)-4-carboxy-4-(19-carboxynonadecanoylamino)butanoyl]-[Arg17,Pro21,Pro27,Arg34]-h-amylin]	0.665
{C20 diacid-γGlu}-KCNTATCATQRLANFLRHSSPNFGAIPSSTPVGSETY-NH2 (disulfide 2-7; SMILES CC[C@H](C)[C@H](NC(=O)[C@H](C)NC(=O)CNC(=O)[C@H](Cc1ccccc1)NC(=O)[C@H](CC(N)=O)NC(=O)[C@@H]1CCCN1C(=O)[C@H](CO)NC(=O)[C@H](CO)NC(=O)[C@H](Cc1c[nH]cn1)NC(=O)[C@H](CCCNC(=N)N)NC(=O)[C@H](CC(C)C)NC(=O)[C@H](Cc1ccccc1)NC(=O)[C@H](CC(N)=O)NC(=O)[C@H](C)NC(=O)[C@H](CC(C)C)NC(=O)[C@H](CCCNC(=N)N)NC(=O)[C@H](CCC(N)=O)NC(=O)[C@@H](NC(=O)[C@H](C)NC(=O)[C@@H]1CSSC[C@H](NC(=O)[C@H](CCCCN)NC(=O)CC[C@H](NC(=O)CCCCCCCCCCCCCCCCCCC(=O)O)C(=O)O)C(=O)N[C@@H](CC(N)=O)C(=O)N[C@@H]([C@@H](C)O)C(=O)N[C@@H](C)C(=O)N[C@@H]([C@@H](C)O)C(=O)N1)[C@@H](C)O)C(=O)N1CCC[C@H]1C(=O)N[C@@H](CO)C(=O)N[C@@H](CO)C(=O)N[C@H](C(=O)N1CCC[C@H]1C(=O)N[C@H](C(=O)NCC(=O)N[C@@H](CO)C(=O)N[C@@H](CCC(=O)O)C(=O)N[C@H](C(=O)N[C@@H](Cc1ccc(O)cc1)C(N)=O)[C@@H](C)O)C(C)C)[C@@H](C)O, also called 17R, 21P, 27P, 31P, 35E)	0.61
KCNTATCATQRLAEFLRHSSPNFGAIPSSTNVGSNTY (C20 diacid-gGlu-2xOEG on the alpha amino group of the N-terminal residue; disulfide Cys2-Cys7 and C-terminal amide as in human amylin, also called 14E, 17R, 21P, 27P)	0.556
